Where no end group is shown, it is not given here.
T1: KTN1(991–1357) (human, UniProt Q86UP2 991-1357)
T1 sequence (looked up): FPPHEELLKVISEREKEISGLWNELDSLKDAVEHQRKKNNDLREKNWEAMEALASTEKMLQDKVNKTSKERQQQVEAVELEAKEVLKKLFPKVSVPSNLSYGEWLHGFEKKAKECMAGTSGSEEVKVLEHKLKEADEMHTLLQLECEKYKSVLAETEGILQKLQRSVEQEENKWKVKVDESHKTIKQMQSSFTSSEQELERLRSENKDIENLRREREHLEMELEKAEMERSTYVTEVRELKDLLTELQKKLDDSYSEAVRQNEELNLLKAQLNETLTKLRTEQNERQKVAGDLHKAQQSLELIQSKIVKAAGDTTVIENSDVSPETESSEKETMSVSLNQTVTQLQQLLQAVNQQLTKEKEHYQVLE


Columns and labels:
[1] = target: T1, KTN1(991–1357); assay: pull-down
[2] = target: CDR2(1–146) (human, UniProt Q01850 1-146); assay: SEC
Chain of CDR2(1–146) (Q01850 1-146): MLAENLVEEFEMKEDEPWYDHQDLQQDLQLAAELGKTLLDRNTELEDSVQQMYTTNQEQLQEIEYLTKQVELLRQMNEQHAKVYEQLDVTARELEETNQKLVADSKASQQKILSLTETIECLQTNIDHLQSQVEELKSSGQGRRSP

[3] = target: T1, KTN1(991–1357); assay: SEC

binding result [3] | Binder | other results
 | GST::KIF5C(807–956) (domain or fragment) not shown | binding result [1]: binds
 | GST::DLIC1(388–523) (domain or fragment, human, UniProt Q9Y6G9 388-523, looked up) PTAAGRPVDASPRVPGGSPRTPNRSVSSNVASVSPIPAGSKKIDPNMKAGATSEGVLANFFNSLLSKKTGSPGGPGVSGGSPAGGAGGGSSGLPPSTKKSGQKPVLDVHAELDRITRKPVTVSPTTPTSPTEGEAS | binding result [2]: binds
binds | EPVSSPTTPPEYKALFKEIFSCIKKTKQEIDEQRTKYRSLSSHS (domain or fragment, human, UniProt Q01850 411-454, looked up) [GST::CDR2(411–454)] | 
binds | {GST}-NGPVAGASRQENGASVILRDIARARENIQKSLAGSSG (domain or fragment, human, UniProt P29692 30-66, looked up) [GST::eEF1Bβ(30–66)] | 

Reference: article PMC11580933 (bioRxiv, 2024)
